Patent US20050272633A1
Where no end group is shown, it is not given here.

Target: NIK624-947 (C-terminal domain of NIK) (human) (UniProt Q99558)
Assay: yeast two-hybrid, against cγc 289-369 as reference

Sequence of NIK624-947 (C-terminal domain of NIK) (human) (Q99558 624-947 limits assumed): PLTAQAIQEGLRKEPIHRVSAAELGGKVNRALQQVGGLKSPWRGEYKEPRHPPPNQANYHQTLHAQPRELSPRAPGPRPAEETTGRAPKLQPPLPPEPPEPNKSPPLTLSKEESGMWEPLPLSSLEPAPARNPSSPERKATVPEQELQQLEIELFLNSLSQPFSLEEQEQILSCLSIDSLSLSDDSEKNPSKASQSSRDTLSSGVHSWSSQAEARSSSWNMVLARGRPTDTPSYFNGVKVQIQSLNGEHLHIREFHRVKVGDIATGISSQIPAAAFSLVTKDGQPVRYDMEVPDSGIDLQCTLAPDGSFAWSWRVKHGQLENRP

| Binder | reduction in affinity |
| --- | --- |
| RIPTLKNLEDLVTEYHGNFSAWSGVSKGLAESLQPDY (receptor, not shown: large carriers, also: fused to GAL4 DNA-binding domain (two-hybrid bait), letters not given here) [cγc 289-325 (44 aa deleted from the ICD)] | 50% |
| cγc 289-357 (12 aa deleted from the membrane distal domain) (receptor, not shown: large carriers) RIPTLKNLEDLVTEYHGNFSAWSGVSKGLAESLQPDYSERLCLVSEIPPKGGALGEGPGASPCNQHSPY | 50% |
